From patent publication US11732048B2, “Anti-axl antagonistic antibodies” (BERGEN TEKNOLOGIOVERFØRING AS, priority 2016, dated 2023)
Entries after “also recorded” stand apart in the source; their conditions may differ.

Columns and labels:
[1] = system: Axl autophosphorylation (Tyrosine 866) in HeLa cells; experiment: Phospho-Axl (Y866) ELISA on HeLa cell lysates; format: cell-based, human
Description: To assess the level to which various Axl inhibitors reduce activation of Axl, as assessed through on of inhibition of Tyrosine 866 (Y866), one of Axl's known autophosphorylation sites (others include Y779 and Y821—see Oncotarget. 2014 October; 5(20): 9546-9563; doi: 10.18632/oncotarget.2542 and references cited therein).
Lysate Preparation • 1. Seed out HeLa cells in 14 10-cm dishes • a. 3 million cells per dish • 2. Incubate cells until attached • 3. Remove medium and wash cells with PBS • 4. Serum-starve the cells in 0.5% FBS media • a. 0.5% MEM for HeLa • b. O/N, at least 24 hour starvation • 5. Incubate cells with anti-Axl antibodies for 1 hour in 6 ml fresh 0.5% MEM. • a. BGB324 (CAS=1037624-75-1, UNII=0ICW2LX8AS): 0.2 uM • b. H2L1-Evitra*: 50 ug/ml • c. H2L1-Catalent*: 50 ug/ml • d. YW327.6S2: 50 ug/ml • *same sequence, different preparation • 6. Stimulate designated plates with 0.01 ug/ml rhGas6 in 6 ml of total media per 10-cm dish. • a. rhGas6 stimulation 0.01 ug/ml • 7. Set-up: Make each in 26 ml of 0.5% MEM • #1. Starvation • #2. rhGas6 stimulation (0.01 ug/ml) • #3. rhGas6 stimulation+pre-incubation with BGB324 0.2 uM • #4. rhGas6 stimulation+pre-incubation with H2L1-Evitra: 50 ug/ml • #5. rhGas6 stimulation+pre-incubation with H2L1-Catalent: 50 ug/ml • #6. rhGas6 stimulation+pre-incubation with YW327.6S2 50 ug/ml • #7. BGB324 0.2 uM alone • #8. H2L1-Evitra: 50 ug/ml alone • #9. H2L1-Catalent: 50 ug/ml alone • #10. YW327.6S2 50 ug/ml alone • 8. Stop reaction by lysing cells on ice • 9. Wash with cold PBS • 10. Add RIPA buffer (plus phosphatase inhibitors) • a. 100 ul/dish • 11. Scrape cells from dish • 12. Incubate 5-10 min on ice • 13. Spin down 13,000 rpm 5-10 min (cold) • 14. Supernatant transferred to fresh tube • 15. Measure phospho-protein by ELISA […]
Materials • Nunc MaxiSorp 96C plates • Tris-buffered saline (TBS) pH7.6 • Tween 20 (Sigma) • Wash buffer (TBS+0.05% Tween 20) • Fetal bovine serum (FBS) (Sigma) • Monoclonal mouse anti-HsAxl antibody 5F11, 3.6 mg/ml stock (BerGenBio). • Polyclonal rabbit anti-Hs-phospho-Y866 Axl antibody pAxl-Y866-16, 1.0 mg/ml (BerGenBio). […] For HeLa cells total protein concentration 1.5 mg/ml gives a strong signal. • Microplate reader with 450 nm absorbance. Absorbance at 595 nm (if available) should be subtracted to reduce background, but the effect is marginal. […]
Develop • Prepare fresh substrate solution: • 100 μl 10 mg/ml TMB stock solution • 10 μl 30% Hydrogen peroxide solution • 9.9 ml 100 mM Sodium acetate pH6 • Optional: test a small volume of the substrate solution by adding 1 μl leftover HRP-conjugated detection antibody mixture (step 12). […] Read plate on microplate reader with absorbance of 450 nm.

[2] = system: Axl-dependent phosphorylation of Akt in LX2 cells; experiment: Axl-dependent AKT activation (pAkt Ser473 Western blot) in LX2 cells; format: cell-based, human
Description: Activation of Axl by Gas6 or cross-linking antibodies leads to phosphorylation of Akt.
Effect of Axl blocking antibodies in blocking Axl-dependent AKT activation in LX2 cells: • Cells were seeded in 12-well/plate (2×10^5 cells/well) in DMEM/10% FBS and allowed to attach and grow for >24 h. […] Axl activation was read out via phosphorylation of Akt on serine 473 (Western blot).
Protein Analysis: • Cells were lysed in RIPA buffer (150 mM NaCl, 1.0% IGEPAL® CA-630, 0.5% sodium deoxycholate, 0.1% SDS, 50 mM Tris, pH 8.0., SIGMA-ALDRICH) supplemented with antiproteases and anti-phosphatases (PMSF, sodium orthovanadate, protease inhibitor cocktail, and sodium fluoride), adjusted to 1× Laemmli loading buffer, sonicated, and centrifuged. 20-30 μl of the samples were subjected to 8% sodium dodecyl sulphate-polyacrylamide gel electrophoresis and then transferred to nitrocellulose membranes. Membranes were blocked in 5% BSA-FAF and washed in TBS Tween buffer and then developed with Pierce-ECL western blotting Substrate. • The antibodies used were p-AKT (p-Akt1/2/3 (C-11)), 1:200 in 5% BSA/TBS-T, o/n at 4° C.; AKT (1:200), followed by anti-mouse m-IgGκ BP-HRP (1:2000, 1 h, RT); anti-AKT (Akt1/2/3 (H-136)), 1:400, 1 h, RT followed by anti-rabbit-IgG-HRP (1:20000, 1 h, RT).
Activation of Axl is often achieved by treating Axl with its ligand, Gas6. […]

[3] = molecular target: T1, human Axl (rhAxl-Fc chimera) (Homo sapiens, UniProt P30530); experiment: Biacore kinetic analysis (surface plasmon resonance) on immobilised rhAxl-Fc; format: binding
T1 construct: Soluble recombinant antigens corresponding to the extracellular domains of members of the human TAM receptor family; Fc; purchased R&D Systems 154-AL
Description: Kinetic analysis of murine MAb 10G5 interacting with rhAxl immobilized on the surface of the Biacore sensor chip. Overlay plots of sensograms for different antibody concentrations (0.3-166.7 nM for murine 10G5) are shown. The precise kinetic analysis was performed using BIA evaluation software and curve fitting according to 1:1 Langmuir binding model. […]
Affinity determination of anti-Axl antibody 10G5 was performed at 25° C. by surface plasmon resonance measurements using Biacore 3000 instrument (GE Healthcare). As a solid antigen-coated surface, a sensor chip CM5 with immobilized rhAxl-Fc chimera (R&D Systems, Cat. no. 154-AL) at density 190 RU was used.
For the kinetics measurements, different concentrations of anti-Axl antibodies (from 0.3 to 666.7 nM) in HBS-EP buffer (Biacore, Cat. no. BR-1001-88) were injected at flow rate of 30 μL/min with 3 min injection time followed by 5 min dissociation (buffer alone). After each cycle, the surface was regenerated by 30 sec injection of a regeneration solution (10 mM HCl, 1 M NaCl) at flow rate 50 μL/min.
The kinetic association (on-rate, kon) and dissociation (off-rate, koff) rates were calculated using BIAevaluation software and 1:1 Langmuir binding model. The equilibrium dissociation constant (KD) was calculated as the koff/kon ratio. The half-life (t1/2) of the formed antibody-antigen complexes was calculated as the ln 2/koff ratio. […]

[4] = system: A549 tumours; experiment: A549 human NSCLC xenograft in mice (Examples 14, 16, 17, 18); format: in vivo, mouse; conditions: SCID mice, 30 mg/kg i.p. twice weekly, after two weeks of treatment, versus control (SYNAGIS)
Description: SCID mice were implanted subcutaneously (s.c.) into the flank with 5×10^6 A549 cells resuspended in serum-free medium/Matrigel (1:1).

[5] = molecular target: T2, Hs-Axl-Fc (immobilized Axl-Fc) (Homo sapiens, UniProt P30530); experiment: Biacore binding competition assays, two injections (Example 22); conditions: Gas6 10 μg/mL as first protein
T2 construct: Fc
Text: Sensor chip with immobilised Axl: Hs-Axl-Fc (638.2 RU), Mm-Axl-Fc (334.5 RU), Rhe-Axl-Fc (350.2 RU)
In this experiment, a first antibody was allowed to bind to saturation. A second antibody was then applied and its ability to bind was monitored.
If the second antibody recognizes the same (or overlapping) epitope as the first antibody then binding will be blocked. If the second antibody recognizes a different epitope then binding will be detected at the same level as if no first antibody was present.
The ability of Gas6 to block antibody binding was also tested, using Gas6 at 10 μg/mL in HBS-EP.
All tests were performed in parallel on Hs-Axl-Fc, Mm-Axl-Fc and Rhe-Axl-Fc surfaces.
See FIG. 1 for a list of the pairs that were tested (in this list Contr-1 is incorrectly labeled YW367 instead of YW327.6S2var). All antibodies were at 25 μg/mL in HBS-EP.
• 2. Perform Biacore experiments at 25° C. • 3. In the instrument control software choose Direct Binding, and select settings for two injections as shown below. • 4. […] Store the template & the result file, start the analysis.

[6] = agent alone, starved HeLa (antibodies 50 ug/ml, BGB324 0.2 uM, rhGas6 0.01 ug/ml)
[7] = rhGas6 0.01 ug/ml stimulation after 1 hour pre-incubation (antibodies 50 ug/ml, BGB324 0.2 uM), starved HeLa
[8] = rhAxl immobilized on Biacore sensor chip, 25° C., 1:1 Langmuir binding model

Row | Molecule | Absorbance @ 450 nm (pAxl reading) [1, 6] | Absorbance @ 450 nm (pAxl reading) [1, 7] | Inhibition of 1H12-stimulated pAkt ([2]; FIG. 22B) | Stimulation of Akt phosphorylation ([2]; FIG. 22A, Gas6 versus cross-linking 1H12) | KD lower than that of the chimeric antibody ([3]; comparison referring to Table 3) | Off-rate (koff) [3, 8] [s⁻¹] | On-rate (kon) [3, 8] [M⁻¹ s⁻¹] | Inhibition of A549 tumour growth [4] | Effect of Gas6 bound first on subsequent binding of the antibody [5] | Effect of Gas6 bound first on subsequent binding of the antibody ([5]; listed as 1H21L1)
1 | Nc1nc(Nc2ccc3c(c2)CC[C@@H](N2CCCC2)CC3)nn1-c1cc2c(nn1)-c1ccccc1CCC2 [BGB324, 1-(6,7-dihydro-5H-benzo[6,7]cyclohepta[1,2-c]pyridazin-3-yl)-N3-((7-(S)-pyrrolidin-1-yl)-6,7,8,9-tetrahydro-5H-benzo[7]annulene-2-yl)-1H-1,2,4-triazole-3,5-diamine, reference compound] | 0.039 | 0.045 | can be inhibited; also recorded: clear response |  |  |  |  |  |  | 
2 | rhGas6: recombinant human Gas6, Axl ligand (protein, listed as Homo sapiens, (1)..(678) Homo sapiens Gas6) MAPSLSPGPAALRRAPQLLLLLLAAECALAALLPAREATQFLRPRQRRAFQVFEEAKQGHLERECVEELCSREEAREVFENDPETDYFYPRYLDCINKYGSPYTKNSGFATCVQNLPDQCTPNPCDRKGTQACQDLMGNFFCLCKAGWGGRLCDKDVNECSQENGGCLQICHNKPGSFHCSCHSGFELSSDGRTCQDIDECADSEACGEARCKNLPGSYSCLCDEGFAYSSQEKACRDVDECLQGRCEQVCVNSPGSYTCHCDGRGGLKLSQDMDTCEDILPCVPFSVAKSVKSLYLGRMFSGTPVIRLRFKRLQPTRLVAEFDFRTFDPEGILLFAGGHQDSTWIVLALRAGRLELQLRYNGVGRVTSSGPVINHGMWQTISVEELARNLVIKVNRDAVMKIAVAGDLFQPERGLYHLNLTVGGIPFHEKDLVQPINPRLDGCMRSWNWLNGEDTTIQETVKVNTRMQCFSVTERGSFYPGSGFAFYSLDYMRTPLDVGTESTWEVEVVAHIRPAADTGVLFALWAPDLRAVPLSVALVDYHSTKKLKKQLVVLAVEHTALALMEIKVCDGQEHVVTVSLRDGEATLEVDGTRGQSEVSAAQLQERLAVLERHLRSPVLTFAGGLPDVPVTSAPVTAFYRGCMTLEVNRRLLDLDEAAYKHSDITAHSCPPVEPAAA | 0.077 |  |  | weaker |  |  |  |  |  | 
3 | H2L1: humanised variant of 10G5; presumably VH GH2 (SEQ ID NO: 2) with VL GL1 (SEQ ID NO: 3) (antibody, V domains shown, hu10G5 VH(GH2); hu10G5 VL(GL1)) VH: EVQLVESGGGLVQPGGSLRLSCAASGYSFTDFYINWVRQAPGKGLEWVARIFPGGDNTYYNEKFKGRFTLSADTSKSTAYLQMNSLRAEDTAVYYCARRGLYYAMDYWGQGTLVTVSS VL: DIQMTQSPSSLSASVGDRVTITCRSSQSLVHSNGIPYLHWYQQKPGKAPKLLIYRVSNRFSGVPSRFSGSGSGTDFTLTISSLQPEDFATYYCSQGTHVPPTFGQGTKVEIK |  | 0.055 |  |  | at least 50% | 0.000142 | 2.07e+06 | around 25% | inhibited | blocks binding
